From the supplement of paper PMC11246515
± gives the standard deviation of the averaged measurements.

Assay: total protein half-life in vivo (active degradation + dilution); higher = more stable protein
[1] = E. coli NCM3722 delta-clpP delta-lon delta-hslV, growth: N-lim chemostat, doubling time 6 h
[2] = E. coli NCM3722 delta-hslV, growth: N-lim chemostat, doubling time 6 h
[3] = E. coli NCM3722 delta-lon, growth: N-lim chemostat, doubling time 6 h
[4] = E. coli NCM3722 delta-smpB, growth: N-lim chemostat, doubling time 6 h
[5] = wild type E. coli NCM3722, growth: C-lim chemostat, doubling time 3 h
[6] = wild type E. coli NCM3722, growth: C-lim chemostat, doubling time 6 h
[7] = wild type E. coli NCM3722, growth: C-lim chemostat, doubling time 12 h
[8] = wild type E. coli NCM3722, growth: N-lim chemostat, doubling time 6 h
[9] = wild type E. coli NCM3722, growth: N-lim chemostat, doubling time 12 h
[10] = wild type E. coli NCM3722, growth: P-lim chemostat, doubling time 6 h
[11] = wild type E. coli NCM3722, growth: P-lim chemostat, doubling time 12 h
[12] = E. coli NCM3722 delta-clpP, growth: N-lim chemostat, doubling time 6 h

Sequence | total protein half-life in vivo [1] [h] | total protein half-life in vivo [2] [h] | total protein half-life in vivo [3] [h] | total protein half-life in vivo [4] [h] | total protein half-life in vivo [5] [h] | total protein half-life in vivo [6] [h] | total protein half-life in vivo [7] [h] | total protein half-life in vivo [8] [h] | total protein half-life in vivo [9] [h] | total protein half-life in vivo [10] [h] | total protein half-life in vivo [11] [h] | total protein half-life in vivo [12] [h]
MKKLQIAVGIIRNENNEIFITRRAADAHMANKLEFPGGKIEMGETPEQAVVRELQEEVGITPQHFSLFEKLEYEFPDRHITLWFWLVERWEGEPWGKEGQPGEWMSLVGLNADDFPPANEPVIAKLKRL | 4.64 ± 0.53 | 4.58 ± 0.57 | 5.1 | 5.16 ± 1.3 | 3.35 ± 0.21 | 5.04 ± 0.078 | 9.03 ± 0.32 | 4.16 ± 0.41 | 6.87 ± 0.51 | 4.48 ± 0.6 | 11 ± 1.5 | –
MSNWPYPRIVAHRGGGKLAPENTLASIDVGAKYGHKMIEFDAKLSKDGEIFLLHDDNLERTSNGWGVAGELNWQDLLRVDAGSWYSKMFKGEPLPLLSQVAERCREHGMMANIEIKPTTGTGPLTGKMVALAARELWAGMTPPLLSSFEIDALEAAQQAAPELPRGLLLDEWRDDWRELTARLGCVSIHLNHKLLNKARVMQLKDAGLRILVYTVNKPQRAAELLRWGVDCICTDAIDVIGPNFTAQ | 4.77 ± 0.94 | 3.65 ± 0.043 | 4.1 ± 0.021 | 3.72 ± 0.12 | 3.33 ± 0.72 | 5.491 ± 0.049 | 9.38 ± 0.43 | 3.87 ± 0.31 | 6.08 ± 0.18 | 5.07 ± 0.11 | 9.88 ± 0.3 | 3.75 ± 0.46
MFKFLVLTLGIISCQAYAEDTVIVNDHDISAIKDCWQKNSDDDTDVNVIKSCLRQEYNLVDAQLNKAYGEAYRYIEQVPRTGVKKPDTEQLNLLKKSQRAWLDFRDKECELILSNEDVQDLSDPYSESEWLSCMIIQTNTRTRQLQLYRNSEDFYPSPLTRG | – | 6.44 | – | – | – | – | – | – | – | – | – | –
MSAEHVLTMLNEHEVKFVDLRFTDTKGKEQHVTIPAHQVNAEFFEEGKMFDGSSIGGWKGINESDMVLMPDASTAVIDPFFADSTLIIRCDILEPGTLQGYDRDPRSIAKRAEDYLRSTGIADTVLFGPEPEFFLFDDIRFGSSISGSHVAIDDIEGAWNSSTQYEGGNKGHRPAVKGGYFPVPPVDSAQDIRSEMCLVMEQMGLVVEAHHHEVATAGQNEVATRFNTMTKKADEIQIYKYVVHNVAHRFGKTATFMPKPMFGDNGSGMHCHMSLSKNGVNLFAGDKYAGLSEQALYYIGGVIKHAKAINALANPTTNSYKRLVPGYEAPVMLAYSARNRSASIRIPVVSSPKARRIEVRFPDPAANPYLCFAALLMAGLDGIKNKIHPGEAMDKNLYDLPPEEAKEIPQVAGSLEEALNELDLDREFLKAGGVFTDEAIDAYIALRREEDDRVRMTPHPVEFELYYSV [P0A9C5] | 5.3 ± 0.14 | 4.63 ± 0.14 | 5.06 ± 0.33 | 4.02 ± 0.12 | 3.39 ± 0.49 | 6.33 ± 0.86 | 11.5 ± 0.3 | 4.25 ± 0.046 | 7.49 ± 0.92 | 5.8 ± 0.092 | 12.1 ± 0.55 | 4.58 ± 0.32
MSKNYHIAVLPGDGIGPEVMTQALKVLDAVRNRFAMRITTSHYDVGGAAIDNHGQPLPPATVEGCEQADAVLFGSVGGPKWEHLPPDQQPERGALLPLRKHFKLFSNLRPAKLYQGLEAFCPLRADIAANGFDILCVRELTGGIYFGQPKGREGSGQYEKAFDTEVYHRFEIERIARIAFESARKRRHKVTSIDKANVLQSSILWREIVNEIATEYPDVELAHMYIDNATMQLIKDPSQFDVLLCSNLFGDILSDECAMITGSMGMLPSASLNEQGFGLYEPAGGSAPDIAGKNIANPIAQILSLALLLRYSLDADDAACAIERAINRALEEGIRTGDLARGAAAVSTDEMGDIIARYVAEGV | 3.45 ± 0.8 | 2.43 ± 0.12 | 2.96 ± 0.089 | 2.527 ± 0.018 | 3.23 ± 0.31 | 5.057 ± 0.042 | 8.72 ± 1.7 | 2.54 ± 0.19 | 3.52 ± 0.11 | 5.34 ± 0.7 | 9.08 ± 0.2 | 2.56 ± 0.42
MNNDVFPNKFKAALAAKQVQIGCWSALSNPISTEVLGLAGFDWLVLDGEHAPNDISTFIPQLMALKGSASAPVVRVPTNEPVIIKRLLDIGFYNFLIPFVETKEEAELAVASTRYPPEGIRGVSVSHRANMFGTVADYFAQSNKNITILVQIESQQGVDNVDAIAATEGVDGIFVGPSDLAAALGHLGNASHPDVQKAIQHIFNRASAHGKPSGILAPVEADARRYLEWGATFVAVGSDLGVFRSATQKLADTFKK | 4.58 ± 0.62 | 2.99 ± 0.14 | 3.19 | 3.51 ± 0.42 | 3.2103 ± 7.8e-05 | 5.123 ± 0.023 | 9.79 ± 0.92 | 3.355 ± 0.022 | 7.58 | – | 11.6 ± 0.72 | 4.02 ± 1.4
MIRFEHVSKAYLGGRQALQGVTFHMQPGEMAFLTGHSGAGKSTLLKLICGIERPSAGKIWFSGHDITRLKNREVPFLRRQIGMIFQDHHLLMDRTVYDNVAIPLIIAGASGDDIRRRVSAALDKVGLLDKAKNFPIQLSGGEQQRVGIARAVVNKPAVLLADEPTGNLDDALSEGILRLFEEFNRVGVTVLMATHDINLISRRSYRMLTLSDGHLHGGVGHE [P0A9R7] | 5.85 ± 0.08 | 5.57 ± 0.067 | 5.62 ± 0.4 | 5.32 ± 0.056 | 2.762 ± 0.02 | 5.52 ± 0.12 | 10.1 ± 0.31 | 5.48 ± 0.17 | 9.44 ± 1.1 | 5.26 ± 0.17 | 11.9 ± 2.3 | –
MDKVLDSALLSSANKRKGILAIGAHPDDIELGCGASLARLAQKGIYIAAVVMTTGNSGTDGIIDRHEESRNALKILGCHQTIHLNFADTRAHLQLNDMISALEDIIKNQIPSDVEIMRVYTMHDADRHQDHLAVYQASMVACRTIPQILGYETPSTWLSFMPQVFESVKEEYFTVKLAALKKHKS | 5.73 | – | – | – | – | – | – | – | – | – | – | –
MTKHARFFLLPSFILISAALIAGCNDKGEEKAHVGEPQVTVHIVKTAPLEVKTELPGRTNAYRIAEVRPQVSGIVLNRNFTEGSDVQAGQSLYQIDPATYQANYDSAKGELAKSEAAAAIAHLTVKRYVPLVGTKYISQQEYDQAIADARQADAAVIAAKATVESARINLAYTKVTAPISGRIGKSTVTEGALVTNGQTTELATVQQLDPIYVDVTQSSNDFMRLKQSVEQGNLHKENATSNVELVMENGQTYPLKGTLQFSDVTVDESTGSITLRAVFPNPQHTLLPGMFVRARIDEGVQPDAILIPQQGVSRTPRGDATVLIVNDKSQVEARPVVASQAIGDKWLISEGLKSGDQVIVSGLQKARPGEQVKATTDTPADTASK | – | – | – | – | – | – | 13.2 | – | – | – | – | –
MLKSPLFWKMTSLFGAVLLLLIPIMLIRQVIVERADYRSDVEDAIRQSTSGPQKLVGPLIAIPVTELYTVQEEDKTVERKRSFIHFWLPESLMVDGNQNVEERKIGIYTGQVWHSDLTLKADFDVSRLSELNAPNITLGKPFIVISVGDARGIGVVKAPEVNGTALTIEPGTGLEQGGQGVHIPLPEGDWRKQNLKLNMALNLSGTGDLSVVPGGRNSEMTLTSNWPHPSFLGDFLPAKREVSESGFQAHWQSSWFANNLGERFASGNDTGWENFPAFSVAVTTPADQYQLTDRATKYAILLIALTFMAFFVFETLTAQRLHPMQYLLVGLSLVMFYLLLLALSEHTGFTVAWIIASLIGAIMNGIYLQAVLKGWCNSMLFTLALLLLDGVMWGLLNSADSALLLGTSVLVVALAGMMFVTRNIDWYAFSLPKMKASKEVTTDDELRIWK | – | – | – | – | – | – | – | – | 1.65 | 3.18 ± 0.29 | 5.81 ± 0.98 | –
